Measured values reported in the RNAGym collection of RNA variant scans (doi:10.7554/elife.80360).

B1: Twister Ribozyme (parent)
chain: AACACUGCCAAUGCCGGUCCCAAGCCCGGAUAAAAGUGGAGGGGGCGG

Variants of: B1
Test: self-cleavage, relative activity (ratio to wild type); higher = more cleavage; co-transcriptional

First: G17C G47A
Second: G17C G47C
The self-cleavage of the first is lower: 0.0753 for the first, 0.142 for the second.

Going from G17C G48C to G17C U18C, the self-cleavage falls from 0.152 to 0.1.

First: G17C U31A
Second: G17U A22C
The self-cleavage of the first is lower: 0.138 for the first, 0.406 for the second.

Compared with G17U A22U, G17U A30G is higher in self-cleavage: 0.161 for the first, 0.265 for the second.

First: G17U A33C
Second: G17U A33G
The self-cleavage of the first is lower: 0.199 for the first, 0.317 for the second.

First: G17U A33U
Second: G17U A34C
The self-cleavage of the first is higher: 0.257 for the first, 0.0829 for the second.

First: G17U A34G
Second: G17U A35C
The self-cleavage of the first is lower: 0.182 for the first, 0.305 for the second.

First: G17U A35G
Second: G17U A40C
The self-cleavage of the first is lower: 0.1 for the first, 0.123 for the second.

Going from G17U A40G to G17U C19A, the self-cleavage rises from 0.0578 to 0.0777.

Going from G17U C20A to G17U C21U, the self-cleavage rises from 0.0851 to 0.0901.

Going from G17U C25U to G17U C26G, the self-cleavage rises from 0.204 to 0.637.

First: G17U C26U
Second: G17U C27G
The self-cleavage of the first is higher: 0.458 for the first, 0.424 for the second.

First: G17U C27U
Second: G17U C46G
The self-cleavage of the first is lower: 0.207 for the first, 0.301 for the second.

Going from G17U G24C to G17U G24U, the self-cleavage rises from 0.0691 to 0.0893.

First: G17U G28A
Second: G17U G28U
The self-cleavage of the first is lower: 0.11 for the first, 0.122 for the second.

Compared with G17U G29A, G17U G29C is lower in self-cleavage: 0.118 for the first, 0.0894 for the second.

First: G17U G29U
Second: G17U G36A
The self-cleavage of the first is higher: 0.158 for the first, 0.124 for the second.

Going from G17U G38A to G17U G38C, the self-cleavage falls from 0.206 to 0.203.

First: G17U G39A
Second: G17U G42U
The self-cleavage of the first is lower: 0.119 for the first, 0.126 for the second.

Going from G17U G43A to G17U G43C, the self-cleavage falls from 0.13 to 0.0878.

Going from G17U G44C to G17U G45A, the self-cleavage falls from 0.293 to 0.148.

Going from G17U G47C to G17U G47U, the self-cleavage falls from 0.183 to 0.181.

First: G17U G48A
Second: G17U G48C
The self-cleavage of the first is lower: 0.316 for the first, 0.467 for the second.

First: G17U G48U
Second: G17U U18A
The self-cleavage of the first is higher: 0.316 for the first, 0.148 for the second.

Going from G17U U18G to G17U U31A, the self-cleavage rises from 0.106 to 0.471.

Compared with G17U U31G, G17U U37A is lower in self-cleavage: 0.339 for the first, 0.092 for the second.

First: G17U U37G
Second: U18A
The self-cleavage of the first is lower: 0.12 for the first, 0.667 for the second.

Compared with U18A A22C, U18A A22G is lower in self-cleavage: 0.485 for the first, 0.0469 for the second.

First: U18A A23C
Second: U18A A23U
The self-cleavage of the first is lower: 0.372 for the first, 0.753 for the second.

Compared with U18A A30C, U18A A33G is higher in self-cleavage: 0.104 for the first, 0.203 for the second.

First: U18A A33U
Second: U18A A34C
The self-cleavage of the first is higher: 0.391 for the first, 0.113 for the second.

Going from U18A A40C to U18A A40U, the self-cleavage rises from 0.133 to 0.147.

First: U18A C19G
Second: U18A C19U
The self-cleavage of the first is lower: 0.0926 for the first, 0.266 for the second.

Compared with U18A C20G, U18A C20U is higher in self-cleavage: 0.0551 for the first, 0.168 for the second.

Compared with U18A C21U, U18A C25A is higher in self-cleavage: 0.0595 for the first, 0.0777 for the second.

Going from U18A C25G to U18A C26A, the self-cleavage rises from 0.0662 to 0.313.

Going from U18A C26U to U18A C27U, the self-cleavage rises from 0.158 to 0.385.

Going from U18A G24A to U18A G24C, the self-cleavage rises from 0.0868 to 0.0951.

Going from U18A G24U to U18A G29A, the self-cleavage rises from 0.094 to 0.41.

Going from U18A G36A to U18A G36C, the self-cleavage falls from 0.111 to 0.0768.

First: U18A G36U
Second: U18A G38U
The self-cleavage of the first is higher: 0.172 for the first, 0.144 for the second.

First: U18A G39A
Second: U18A G41C
The self-cleavage of the first is higher: 0.104 for the first, 0.0769 for the second.

Going from U18A G41U to U18A G42A, the self-cleavage falls from 0.125 to 0.104.

Going from U18A G42C to U18A G43C, the self-cleavage falls from 0.215 to 0.144.

Compared with U18A G43U, U18A G44U is higher in self-cleavage: 0.125 for the first, 0.543 for the second.

Compared with U18A G45A, U18A G45C is lower in self-cleavage: 0.32 for the first, 0.155 for the second.

Going from U18A G47U to U18A G48A, the self-cleavage rises from 0.174 to 0.279.

First: U18A U31A
Second: U18A U37A
The self-cleavage of the first is higher: 0.584 for the first, 0.0711 for the second.

Compared with U18A U37G, U18C is higher in self-cleavage: 0.137 for the first, 0.664 for the second.

Going from U18C A22C to U18C A22U, the self-cleavage falls from 0.397 to 0.243.

Going from U18C A30U to U18C A32U, the self-cleavage falls from 0.512 to 0.464.

Going from U18C A33C to U18C A34C, the self-cleavage falls from 0.386 to 0.0598.

Compared with U18C A34G, U18C A34U is higher in self-cleavage: 0.142 for the first, 0.149 for the second.

First: U18C A35C
Second: U18C A35G
The self-cleavage of the first is higher: 0.641 for the first, 0.139 for the second.

Going from U18C A40C to U18C A40G, the self-cleavage rises from 0.0612 to 0.121.

Going from U18C A40U to U18C C19G, the self-cleavage falls from 0.113 to 0.0747.

Going from U18C C19U to U18C C20U, the self-cleavage rises from 0.247 to 0.375.

Going from U18C C21A to U18C C21U, the self-cleavage falls from 0.0881 to 0.0707.

Going from U18C C25G to U18C C25U, the self-cleavage rises from 0.104 to 0.16.

First: U18C C26A
Second: U18C C27A
The self-cleavage of the first is lower: 0.0527 for the first, 0.0979 for the second.

First: U18C C27U
Second: U18C G24A
The self-cleavage of the first is higher: 0.182 for the first, 0.0865 for the second.

Going from U18C G28A to U18C G28C, the self-cleavage falls from 0.181 to 0.124.

Compared with U18C G29C, U18C G29U is higher in self-cleavage: 0.0613 for the first, 0.27 for the second.

First: U18C G36A
Second: U18C G36U
The self-cleavage of the first is higher: 0.158 for the first, 0.0651 for the second.

First: U18C G38U
Second: U18C G39A
The self-cleavage of the first is higher: 0.261 for the first, 0.111 for the second.

Compared with U18C G39C, U18C G41C is lower in self-cleavage: 0.108 for the first, 0.0753 for the second.

Going from U18C G41U to U18C G42A, the self-cleavage falls from 0.13 to 0.0575.

Compared with U18C G42U, U18C G44C is higher in self-cleavage: 0.0957 for the first, 0.49 for the second.

Compared with U18C G44U, U18C G45U is lower in self-cleavage: 0.498 for the first, 0.228 for the second.

Going from U18C G47A to U18C G47C, the self-cleavage falls from 0.288 to 0.162.

First: U18C G47U
Second: U18C U31C
The self-cleavage of the first is lower: 0.288 for the first, 0.569 for the second.

Compared with U18C U37C, U18C U37G is higher in self-cleavage: 0.0756 for the first, 0.155 for the second.

First: U18G
Second: U18G A22C
The self-cleavage of the first is higher: 0.0785 for the first, 0.0631 for the second.

Going from U18G A23C to U18G A23G, the self-cleavage rises from 0.0482 to 0.0817.

Compared with U18G A30C, U18G A30G is lower in self-cleavage: 0.14 for the first, 0.0594 for the second.

First: U18G A32C
Second: U18G A32U
The self-cleavage of the first is lower: 0.0661 for the first, 0.0793 for the second.

Going from U18G A33C to U18G A33G, the self-cleavage falls from 0.0995 to 0.0866.

Going from U18G A34G to U18G A35G, the self-cleavage rises from 0.079 to 0.0984.

Going from U18G A35U to U18G A40G, the self-cleavage falls from 0.0933 to 0.0494.

First: U18G A40U
Second: U18G C19A
The self-cleavage of the first is lower: 0.0452 for the first, 0.0794 for the second.

First: U18G C19G
Second: U18G C20U
The self-cleavage of the first is higher: 0.114 for the first, 0.102 for the second.

Compared with U18G C21U, U18G C26A is lower in self-cleavage: 0.0712 for the first, 0.0682 for the second.

Going from U18G C26U to U18G C27A, the self-cleavage falls from 0.0716 to 0.0641.

For U18G C27G, the self-cleavage was 0.0399.
